This test addresses Recombinant soluble empty (peptide free) HLA-DR1 (human). The test is described as follows: competitive peptide binding assay.
On to “P2 S peptide (HA_(306–319) substituted at P2), unlabeled”, for which the Kd was 97.2 nM.
In the case of “P2,3,7,10 SDPG peptide (HA_(306–319) substituted at P2, P3, P7 and P10), unlabeled”, the Kd is 313000 nM.
Turning to “P2,7,10 SPG peptide (HA_(306–319) substituted at P2, P7 and P10), unlabeled”, the Kd amounted to 605 nM.
Take “P2,10 SG peptide (HA_(306–319) substituted at P2 and P10), unlabeled”: the Kd was 373 nM.

As usually defined, the Kd is a measure of binding affinity in units of concentration.
